Source: patent publication US20190175515A1, “CHOLESTERYL ESTER VESICLES LOADING PEPTIDES, PROTEINS AND NUCLEIC ACIDS INTO CHYLOMICRONS AND BODY CELLS” (priority 2016, published 2019)
Residues, ends and D or L forms follow the SMILES beside them. *: point of attachment. Cbz = O=C(OCc1ccccc1)*

Experiments:
MCF-7 cells [1] = assay: Pilot study of MG-132 on MCF-7 cells exposed to 1117 insulin-cholestosomes; assay type: cell-based, human
Description: A pilot study was performed whereby […] to MCF -7 cells that were also exposed to 1117 insulin-cholestosomes.

[2] = rats, chitosan nanoparticles; cited from earlier work
MCF-7 cells [3] = assay: FITC cholestosome (myristate/palmitate) uptake in MCF-7 cells, fluorescent imaging; assay type: cell-based, human
Description: In this experiment, 22 ug of FITC formulation was placed on MCF-7 cells, Fluorescent imaging was performed over time, with images taken at 2, 4, 8 and 24 hours.

[4] = assay type: in vivo; conditions: rats
Description: These experiments were conducted to evaluate the comparative plasma and tissue to plasma ratios of insulin between a cholesterol-encapsulated insulin formulation (cholestosome-insulin) administered by oral gavage and by subcutaneous injection, both compared with the same insulin administered subcutaneously (s.c.) In healthy female Wistar rats.
This study was designed for comparison of insulin bioavailability from the formulations administered, which is defined by the Area under the curve (AUC) calculated as the ratio of Oral to […] over 24 hours following the dosing of the formulation,
Sixteen healthy female Wistar rats ranging from 246.5 to 292.8 g in body weight were distributed into three study groups. Two 6-rat cohorts were dosed with cholestosome insulin oral and SC injection and the remaining 4 rats were given subcutaneous regular insulin as controls. Each rat was dosed with 1.0 ml/animal of a solution identified by Sponsor with cage number and rat number only. Two groups of female Wistar rats were fasted, ranging in duration from 3 hr prior—to 1 hr post-dosing. Rats had free access to water at all times. […] Rats were monitored daily for mortality and morbidity, including signs of hypoglycemia. […]
Results. […] All AUG values were corrected for actual dose given (subtracting residual returned) and expressed as AUG to a dose of 0.25 units, which was approximately 1 unit/kg of body weight. […]

[5] = Insulin solubility and integrity versus pH (HPLC); assay type: physicochemical
Description: Many preparations of cholestosome insulin have been made. […] Accordingly, the solubility limits of Insulin were empirically tested at pH 3.5, 6, 7 and 8. Data on the […] of each formulation are plotted by pH of the insulin solution are plotted at two different ionic strengths of PBS buffer in FIG. 9.
The maximum concentration at each tested pH was applied to the following: Stock solutions for each pH and ionic strength combination are prepared. The empirically determined maximum concentration of Human Recombinant Insulin (SAFC Biosciences and. ProSpec) was added to the stock solution. These stock solutions were then readjusted to the desired pH using either 1M HCl or 1M NaOH as needed 5.0 ml of stock solution was heated to 55° C. and used as the aqueous component in preparations.

[6] = Temperature stability of insulin; assay type: physicochemical
Description: Once there is the addition of the aqueous molecule or construct, the mixture is sonicated until there is a cloudy solution formed, thereby minimizing waste from un-dissolved esters, with sonication providing energy for unilamellar vesicle formation. The aqueous component is also maintained at the target temperature prior to its addition, and as stated previously for most peptides, proteins and genes, the highest temperature that can be tolerated is only about 45-50° C.
On the basis of these finding and considering the stability of the proteins and peptides being formulated, including insulin by way of example, the operating temperature of encapsulation procedures was kept,between 40 and 55 degrees centigrade. […] By way of example, optimal insulin preparation was at 37-55 degrees centigrade.

melanoma = conditions: patients with melanoma; cited from earlier work
[7] = Eligen proteinaceous coating and SNAC; cited from earlier work

Description for Caco-2 cells: Caco-2 intestinal epithelial cells were gown in Dulbecco's Modified Eagle's Media (DMEM) supplemented with 20% fetal bovine serum (heat inactivated), 1 nM sodium pyruvate, 100 U/ml penicillin, 100 μg/ml streptomycin, 292 μg/ml L-Glutamine and 1× MEM non-essential amino acids (Invitrogen, #11140). Cells were cultured in 75 cm^2 flasks and incubated in a 37° C. and 5% CO2 environment until 80-90% confluent. The Biocoat HTS Caco-2 assay system (Becton Dickson, #0354802) was used for transport studies. Cells were seeded at a density of 3×10^5 cells/well and differentiated into enterocyte-like cells using, the manufacturer's protocol. This system used a special fibrillar collagen insert and a serum free differentiation medium enhanced with butyric acid, hormones, growth factors and metabolites to establish a differentiated monolayer in 3 days instead of the 21 days that is normally required for this process. This involved incubation of the cells with a DMEM based media containing 10% FBS for 48 hours at 37° C., 5% CO2 after seeding to establish a growth phase. The media was then replaced by the defined differentiation media and incubated for another 48 hours. At this point the Caco-2 cells are ready for further studies.
The differentiated Caco-2 cells were used for the production of Chylomicrons using the method of Luchoomun and Hussain-1999 (21). This method uses supplementation with oleic acid (OA) and taurocholate (TC) at a 1.6:1.0 mM ratio to achieve chylomicrons production. The OA:TC solution was made up in the DMEM based cell growth media used in the BIOCOAT differentiation protocol by adding OA to a 10 mM TC solution and incubated at 37° C. until clear. This was then 0.2 u filtered and used immediately for the transport studies. Treatments plus OA:TC were added in a 450 ul volume to the apical side of the well and incubated for 24 hours for transport studies and chylomicrons production. PBS plus lingind glucose was added in a 1ml volume to the basolateral side. […]

With CC(C)C[C@@H](C=O)NC(=O)[C@H](CC(C)C)NC(=O)[C@H](CC(C)C)NC(=O)OCc1ccccc1 [MG-132] (Cbz-Leu-Leu-Leu-aldehyde) the “effect on exocytosis of insulin-cholestosomes” value (MCF-7 cells [1]) was “caused the likely exocytosis of more intact insulin-cholestosomes”.

For Aspart Insulin, the “oral bioavailability of insulin” value [2] is given as 17%.

With “FITC-insulin: FITC labeled regular insulin purchased commercially, unencapsulated” the “FITC signal found in the Caco-2 cells” value (Caco-2 cells; Caco-2) was “about 1%” and the “FITC signal remaining on the apical side” value (Caco-2 cells; human, Caco-2, 24 h) was about 100%.

For Fluorescein Isothiocyanate [FITC], the “uptake / fluorescence, encapsulated FITC and FITC alone” value (MCF-7 cells [3]) was “uptake of FITC itself into MCF-7 cells”.

In the case of “Insulin: Human Recombinant Insulin made in bacteria”, the “oral bioavailability of insulin” value [2] is listed as 17-20%, the “signs of drug toxicity or severe hypoglycemia” value [4] is listed as “No signs of drug toxicity or severe hypoglycemia” and the tolerability ([4]; oral and SC (cholestosome), SC (regular insulin)) is listed as “well tolerated”. For the same compound, the Insulin solubility ([5]; pH 8.0) was “high”, the “integrity of insulin by HPLC analysis” value ([5]; pH (8) environment) was “breaks down the insulin A/B Dimer” and the “stability across operating temperature range” value ([6]; between 40 and 55 degrees centigrade) was “stable”. For the same compound, the “temperature up to which insulin remains stable” value ([6]; under certain conditions) was “up to 55 °C”.

For “acid protected insulin: insulin protected from acid but not cholestosome encapsulated, Caco-2 control”, the “insulin passing the apical Caco-2 barrier” value (Caco-2 cells; Caco-2) was under 5%.

For ipilimumab: CTLA-4 antibody, the “overall tumor response (OR) rate” value (melanoma) is given as 11%.

For “semaglutide: a GLP-1 agonist under development by Novo Nordisk”, the oral bioavailability [7] is listed as 2.5%.
